Data from paper PMC9352680, “A comprehensive thermodynamic model for RNA binding by the Saccharomyces cerevisiae Pumilio protein PUF4”.

T1: PUF4 RNA-binding domain (Saccharomyces cerevisiae, UniProt P25339 537-888)
T1 sequence: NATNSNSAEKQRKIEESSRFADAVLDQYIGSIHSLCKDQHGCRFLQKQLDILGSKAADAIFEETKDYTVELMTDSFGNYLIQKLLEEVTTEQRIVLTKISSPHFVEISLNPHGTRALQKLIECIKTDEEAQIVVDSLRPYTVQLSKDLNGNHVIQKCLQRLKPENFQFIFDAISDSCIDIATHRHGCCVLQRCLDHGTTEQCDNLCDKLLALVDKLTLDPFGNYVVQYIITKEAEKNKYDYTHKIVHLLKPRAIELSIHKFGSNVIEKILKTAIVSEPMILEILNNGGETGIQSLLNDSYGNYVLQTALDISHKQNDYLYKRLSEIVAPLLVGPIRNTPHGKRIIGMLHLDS

B1: Ic_S1_P4E.1_K4.1_C4.1_H4.1_A4.1_[A6T]_F4.1_[T8A]_[A9G]_T4.1 (ssRNA)
RNA: UCUCUUUGUAUUUAGUCUCUU
B2: Ic_S1_P4E.1_K4.1_C4.1_H4.1_A4.1_[A6T]_[T7G]_F4.1_[A9G]_T4.1 (ssRNA)
RNA: UCUCUUUGUAUUGUGUCUCUU
B3: Ic_S1_P4E.1_K4.1_C4.1_H4.1_A4.1_[A6C]_[T7C]_F4.1_[T8A]_T4.1 (ssRNA)
RNA: UCUCUUUGUAUCCAAUCUCUU
B4: Ic_S1_P4E.1_K4.1_C4.1_H4.1_A4.1_[A6T]_[T7C]_F4.1_[T8G]_[A9G]_T4.1 (ssRNA)
RNA: UCUCUUUGUAUUCGGUCUCUU
B5: Ic_S1_P4E.1_K4.1_C4.1_H4.1_A4.1_[A6C]_[T7C]_F4.1_[A9T]_T4.1 (ssRNA)
RNA: UCUCUUUGUAUCCUUUCUCUU
B6: Ic_S1_P4E.1_K4.1_C4.1_H4.1_A4.1_[A6C]_[T7A]_F4.1_[T8C]_[A9C]_T4.1 (ssRNA)
RNA: UCUCUUUGUAUCACCUCUCUU
B7: Ic_S1_P4E.1_K4.1_C4.1_H4.1_A4.1_[A6T]_[T7G]_F4.1_[T8C]_[A9G]_T4.1 (ssRNA)
RNA: UCUCUUUGUAUUGCGUCUCUU
B8: Ic_S1_P4E.1_K4.1_C4.1_H4.1_A4.1_[A6C]_[T7A]_F4.1_[A9C]_T4.1 (ssRNA)
RNA: UCUCUUUGUAUCAUCUCUCUU
B9: Ic_S1_P4E.1_K4.1_C4.1_H4.1_A4.1_[A6T]_[T7G]_F4.1_[T8C]_T4.1 (ssRNA)
RNA: UCUCUUUGUAUUGCAUCUCUU
B10: Ic_S1_P4E.1_K4.1_C4.1_H4.1_A4.1_[A6C]_F4.1_[T8C]_[A9T]_T4.1 (ssRNA)
RNA: UCUCUUUGUAUCUCUUCUCUU
B11: Ic_S1_P4E.1_K4.1_C4.1_H4.1_A4.1_[A6T]_[T7C]_F4.1_[T8C]_T4.1 (ssRNA)
RNA: UCUCUUUGUAUUCCAUCUCUU
B12: Ic_S1_P4E.1_K4.1_C4.1_H4.1_A4.1_[A6T]_[T7G]_F4.1_[T8C]_[A9T]_T4.1 (ssRNA)
RNA: UCUCUUUGUAUUGCUUCUCUU
B13: Ic_S1_P4E.1_K4.1_C4.1_H4.1_A4.1_[A6C]_F4.1_[T8A]_[A9C]_T4.1 (ssRNA)
RNA: UCUCUUUGUAUCUACUCUCUU
B14: Ic_S1_P4E.1_K4.1_C4.1_H4.1_A4.1_[A6T]_F4.1_[T8C]_[A9G]_T4.1 (ssRNA)
RNA: UCUCUUUGUAUUUCGUCUCUU
B15: Ic_S1_P4E.1_K4.1_C4.1_H4.1_A4.1_[A6T]_[T7C]_F4.1_[A9T]_T4.1 (ssRNA)
RNA: UCUCUUUGUAUUCUUUCUCUU
B16: Ic_S1_P4E.1_K4.1_C4.1_H4.1_A4.1_[A6T]_[T7A]_F4.1_[T8C]_[A9G]_T4.1 (ssRNA)
RNA: UCUCUUUGUAUUACGUCUCUU
B17: Ic_S1_P4E.1_K4.1_C4.1_H4.1_A4.1_[A6C]_[T7A]_F4.1_[A9T]_T4.1 (ssRNA)
RNA: UCUCUUUGUAUCAUUUCUCUU
B18: Ic_S1_P4E.1_K4.1_C4.1_H4.1_A4.1_[A6C]_F4.1_[T8C]_[A9G]_T4.1 (ssRNA)
RNA: UCUCUUUGUAUCUCGUCUCUU
B19: Ia_S1_P3E.1_K3.1_C3.1_H3.1_A3.1_[A6T]_F3.1_T3.1 (ssRNA)
RNA: UCUCUUUGUAUUUAUCUCUU
B20: Ic_S1_P4E.1_K4.1_C4.1_H4.1_A4.1_[A6C]_[T7A]_F4.1_[T8C]_T4.1 (ssRNA)
RNA: UCUCUUUGUAUCACAUCUCUU
B21: Ic_S1_P4E.1_K4.1_C4.1_H4.1_A4.1_[A6T]_[T7C]_F4.1_[T8G]_[A9C]_T4.1 (ssRNA)
RNA: UCUCUUUGUAUUCGCUCUCUU
B22: Ic_S1_P4E.1_K4.1_C4.1_H4.1_A4.1_[A6T]_[T7G]_F4.1_[T8C]_[A9C]_T4.1 (ssRNA)
RNA: UCUCUUUGUAUUGCCUCUCUU
B23: Ic_S1_P4E.1_K4.1_C4.1_H4.1_A4.1_[A6T]_[T7G]_F4.1_[A9T]_T4.1 (ssRNA)
RNA: UCUCUUUGUAUUGUUUCUCUU
B24: Ic_S1_P4E.1_K4.1_C4.1_H4.1_A4.1_[A6T]_[T7G]_F4.1_[T8G]_[A9T]_T4.1 (ssRNA)
RNA: UCUCUUUGUAUUGGUUCUCUU
B25: Ic_S1_P4E.1_K4.1_C4.1_H4.1_A4.1_[A6C]_[T7A]_F4.1_[T8G]_[A9C]_T4.1 (ssRNA)
RNA: UCUCUUUGUAUCAGCUCUCUU
B26: Ic_S1_P4E.1_K4.1_C4.1_H4.1_A4.1_[A6T]_F4.1_[T8C]_[A9C]_T4.1 (ssRNA)
RNA: UCUCUUUGUAUUUCCUCUCUU
B27: Ib_S1_P3E.1_K3.1_C3.1_H3.1_A3.1_[A6T]_F3.1_[T7A]_T3.1 (ssRNA)
RNA: UCUCUUUGUAUUAAUCUCUU
B28: Ic_S1_P4E.1_K4.1_C4.1_H4.1_A4.1_[A6T]_[T7A]_F4.1_[T8G]_[A9T]_T4.1 (ssRNA)
RNA: UCUCUUUGUAUUAGUUCUCUU
B29: Ic_S1_P4E.1_K4.1_C4.1_H4.1_A4.1_[A6T]_[T7G]_F4.1_[T8G]_[A9C]_T4.1 (ssRNA)
RNA: UCUCUUUGUAUUGGCUCUCUU
B30: Ic_S1_P4E.1_K4.1_C4.1_H4.1_A4.1_[A6T]_[T7A]_F4.1_[A9G]_T4.1 (ssRNA)
RNA: UCUCUUUGUAUUAUGUCUCUU
B31: Ic_S1_P4E.1_K4.1_C4.1_H4.1_A4.1_[A6T]_[T7A]_F4.1_[T8G]_[A9C]_T4.1 (ssRNA)
RNA: UCUCUUUGUAUUAGCUCUCUU
B32: Ic_S1_P3E.1_K3.1_C3.1_H3.1_A3.1_[T5C]_F3.1_[A8G]_T3.1 (ssRNA)
RNA: UCUCUUUGUACAUGUCUCUU
B33: Ic_S1_P4E.1_K4.1_C4.1_H4.1_A4.1_[A6T]_F4.1_[T8G]_[A9C]_T4.1 (ssRNA)
RNA: UCUCUUUGUAUUUGCUCUCUU
B34: Ic_S1_P4E.1_K4.1_C4.1_H4.1_A4.1_[A6C]_F4.1_[T8G]_[A9T]_T4.1 (ssRNA)
RNA: UCUCUUUGUAUCUGUUCUCUU
B35: Ic_S1_P4E.1_K4.1_C4.1_H4.1_A4.1_[A6C]_[T7A]_F4.1_[T8A]_[A9T]_T4.1 (ssRNA)
RNA: UCUCUUUGUAUCAAUUCUCUU
B36: Ic_S1_P4E.1_K4.1_C4.1_H4.1_A4.1_[A6T]_[T7C]_F4.1_[T8G]_T4.1 (ssRNA)
RNA: UCUCUUUGUAUUCGAUCUCUU
B37: Ic_S1_P4E.1_K4.1_C4.1_H4.1_A4.1_[A6T]_[T7C]_F4.1_[A9C]_T4.1 (ssRNA)
RNA: UCUCUUUGUAUUCUCUCUCUU
B38: Ic_S1_P4E.1_K4.1_C4.1_H4.1_A4.1_[A6T]_F4.1_[T8A]_[A9C]_T4.1 (ssRNA)
RNA: UCUCUUUGUAUUUACUCUCUU
B39: Ic_S1_P4E.1_K4.1_C4.1_H4.1_A4.1_[A6C]_[T7C]_F4.1_[A9C]_T4.1 (ssRNA)
RNA: UCUCUUUGUAUCCUCUCUCUU
B40: Ic_S1_P4E.1_K4.1_C4.1_H4.1_A4.1_[A6T]_[T7C]_F4.1_[T8C]_[A9C]_T4.1 (ssRNA)
RNA: UCUCUUUGUAUUCCCUCUCUU
B41: Ic_S1_P3E.1_K3.1_C3.1_H3.1_A3.1_[A6C]_F3.1_[T7A]_T3.1 (ssRNA)
RNA: UCUCUUUGUAUCAAUCUCUU
B42: Ic_S1_P4E.1_K4.1_C4.1_H4.1_A4.1_[A6T]_[T7C]_F4.1_[T8A]_[A9G]_T4.1 (ssRNA)
RNA: UCUCUUUGUAUUCAGUCUCUU
B43: Ic_S1_P4E.1_K4.1_C4.1_H4.1_A4.1_[A6C]_[T7C]_F4.1_[T8A]_[A9T]_T4.1 (ssRNA)
RNA: UCUCUUUGUAUCCAUUCUCUU
B44: Ic_S1_P4E.1_K4.1_C4.1_H4.1_A4.1_[A6C]_[T7C]_F4.1_[A9G]_T4.1 (ssRNA)
RNA: UCUCUUUGUAUCCUGUCUCUU
B45: Ic_S1_P4E.1_K4.1_C4.1_H4.1_A4.1_[A6C]_[T7A]_F4.1_[T8G]_[A9T]_T4.1 (ssRNA)
RNA: UCUCUUUGUAUCAGUUCUCUU
B46: Ic_S1_P4E.1_K4.1_C4.1_H4.1_A4.1_[A6T]_[T7C]_F4.1_[T8A]_[A9T]_T4.1 (ssRNA)
RNA: UCUCUUUGUAUUCAUUCUCUU
B47: Ic_S1_P4E.1_K4.1_C4.1_H4.1_A4.1_[A6C]_[T7A]_F4.1_[A9G]_T4.1 (ssRNA)
RNA: UCUCUUUGUAUCAUGUCUCUU
B48: Ic_S1_P3E.1_K3.1_C3.1_H3.1_A3.1_[T5A]_F3.1_[A8G]_T3.1 (ssRNA)
RNA: UCUCUUUGUAAAUGUCUCUU
B49: Ic_S1_P4E.1_K4.1_C4.1_H4.1_A4.1_[A6C]_[T7A]_F4.1_[T8A]_[A9C]_T4.1 (ssRNA)
RNA: UCUCUUUGUAUCAACUCUCUU
B50: Ib_S1_P3E.1_K3.1_C3.1_H3.1_A3.1_[A6T]_F3.1_[T7C]_T3.1 (ssRNA)
RNA: UCUCUUUGUAUUCAUCUCUU
B51: Ic_S1_P4E.1_K4.1_C4.1_H4.1_A4.1_[A6C]_F4.1_[T8A]_[A9G]_T4.1 (ssRNA)
RNA: UCUCUUUGUAUCUAGUCUCUU
B52: Ic_S1_P4E.1_K4.1_C4.1_H4.1_A4.1_[A6T]_[T7C]_F4.1_[T8C]_[A9T]_T4.1 (ssRNA)
RNA: UCUCUUUGUAUUCCUUCUCUU
B53: Ic_S1_P4E.1_K4.1_C4.1_H4.1_A4.1_[A6T]_F4.1_[T8G]_[A9G]_T4.1 (ssRNA)
RNA: UCUCUUUGUAUUUGGUCUCUU
B54: Ic_S1_P4E.1_K4.1_C4.1_H4.1_A4.1_[A6T]_[T7A]_F4.1_[A9C]_T4.1 (ssRNA)
RNA: UCUCUUUGUAUUAUCUCUCUU
B55: Ic_S1_P4E.1_K4.1_C4.1_H4.1_A4.1_[A6T]_[T7A]_F4.1_[T8C]_[A9C]_T4.1 (ssRNA)
RNA: UCUCUUUGUAUUACCUCUCUU
B56: Ic_S1_P4E.1_K4.1_C4.1_H4.1_A4.1_[A6T]_[T7A]_F4.1_[A9T]_T4.1 (ssRNA)
RNA: UCUCUUUGUAUUAUUUCUCUU
B57: Ic_S1_P4E.1_K4.1_C4.1_H4.1_A4.1_[A6T]_[T7A]_F4.1_[T8A]_[A9T]_T4.1 (ssRNA)
RNA: UCUCUUUGUAUUAAUUCUCUU
B58: Ic_S1_P4E.1_K4.1_C4.1_H4.1_A4.1_[A6T]_[T7A]_F4.1_[T8A]_T4.1 (ssRNA)
RNA: UCUCUUUGUAUUAAAUCUCUU
B59: Ic_S1_P4E.1_K4.1_C4.1_H4.1_A4.1_[A6T]_[T7A]_F4.1_[T8C]_[A9T]_T4.1 (ssRNA)
RNA: UCUCUUUGUAUUACUUCUCUU

Target: T1, PUF4 RNA-binding domain
Experiment: Mg; RNA-MaP; 20 mM Na-HEPES pH 7.4, 30 mM KOAc, 0.75 mM MgCl2, 0.1% Tween-20, 5% glycerol, 0.1 mg/mL BSA, 2 mM DTT; 25 C; 0.0125-409.6 nM protein
Details: tags: N-His6-TEV cleaved; C-SNAP kept, Cy3B-labelled; label: tethered on chip by stalled RNA polymerase

Binder	Kd [nM]
B1	25.3
B2	40.2
B3	1050
B4	> 2300
B5	44.9
B6	432
B7	926
B8	17.6
B9	365
B10	522
B11	454
B12	443
B13	28.9
B14	462
B15	27.1
B16	844
B17	11.2
B18	382
B19	36.2
B20	74.8

Binder	Kd [nM]
B21	1060
B22	943
B23	33.6
B24	500
B25	606
B26	313
B27	312
B28	431
B29	1330
B30	10.8
B31	530
B32	21.8
B33	350
B34	58.6
B35	91.5
B36	753
B37	38.5
B38	74.9
B39	67.2
B40	505

Binder	Kd [nM]
B41	108
B42	642
B43	362
B44	82.6
B45	316
B46	141
B47	8.82
B48	97.5
B49	508
B50	296
B51	43.8
B52	114
B53	630
B54	19.3
B55	511
B56	12.6
B57	86.5
B58	95.4
B59	49.6
